Results on two molecules are retold here after article PMC7794343, “Structures of human dual oxidase 1 complex in low-calcium and high-calcium states” (Nature Communications, 2021).

B2: human dual oxidase 1 (hDUOX1), matured protein 20-1551 with N-terminal GFP tag (enzyme, UniProt Q9NRD9-1 20-1551, looked up)
chain: GAQNPISWEVQRFDGWYNNLMEHRWGSKGSRLQRLVPASYADGVYQPLGEPHLPNPRDLSNTISRGPAGLASLRNRTVLGVFFGYHVLSDLVSVETPGCPAEFLNIRIPPGDPMFDPDQRGDVVLPFQRSRWDPETGRSPSNPRDPANQVTGWLDGSAIYGSSHSWSDALRSFSRGQLASGPDPAFPRDSQNPLLMWAAPDPATGQNGPRGLYAFGAERGNREPFLQALGLLWFRYHNLWAQRLARQHPDWEDEELFQHARKRVIATYQNIAVYEWLPSFLQKTLPEYTGYRPFLDPSISSEFVAASEQFLSTMVPPGVYMRNASCHFQGVINRNSSVSRALRVCNSYWSREHPSLQSAEDVDALLLGMASQIAEREDHVLVEDVRDFWPGPLKFSRTDHLASCLQRGRDLGLPSYTKARAALGLSPITRWQDINPALSRSNDTVLEATAALYNQDLSWLELLPGGLLESHRDPGPLFSTIVLEQFVRLRDGDRYWFENTRNGLFSKKEIEEIRNTTLQDVLVAVINIDPSALQPNVFVWHKGDPCPQPRQLSTEGLPACAPSVVRDYFEGSGFGFGVTIGTLCCFPLVSLLSAWIVARLRMRNFKRLQGQDRQSIVSEKLVGGMEALEWQGHKEPCRPVLVYLQPGQIRVVDGRLTVLRTIQLQPPQKVNFVLSSNRGRRTLLLKIPKEYDLVLLFNLEEERQALVENLRGALKESGLSIQEWELREQELMRAAVTREQRRHLLETFFRHLFSQVLDINQADAGTLPLDSSQKVREALTCELSRAEFAESLGLKPQDMFVESMFSLADKDGNGYLSFREFLDILVVFMKGSPEEKSRLMFRMYDFDGNGLISKDEFIRMLRSFIEISNNCLSKAQLAEVVESMFRESGFQDKEELTWEDFHFMLRDHNSELRFTQLCVKGVEVPEVIKDLCRRASYISQDMICPSPRVSARCSRSDIETELTPQRLQCPMDTDPPQEIRRRFGKKVTSFQPLLFTEAHREKFQRSCLHQTVQQFKRFIENYRRHIGCVAVFYAIAGGLFLERAYYYAFAAHHTGITDTTRVGIILSRGTAASISFMFSYILLTMCRNLITFLRETFLNRYVPFDAAVDFHRLIASTAIVLTVLHSVGHVVNVYLFSISPLSVLSCLFPGLFHDDGSEFPQKYYWWFFQTVPGLTGVVLLLILAIMYVFASHHFRRRSFRGFWLTHHLYILLYVLLIIHGSFALIQLPRFHIFFLVPAIIYGGDKLVSLSRKKVEISVVKAELLPSGVTHLRFQRPQGFEYKSGQWVRIACLALGTTEYHPFTLTSAPHEDTLSLHIRAAGPWTTRLREIYSAPTGDRCARYPKLYLDGPFGEGHQEWHKFEVSVLVGGGIGVTPFASILKDLVFKSSVSCQVFCKKIYFIWVTRTQRQFEWLADIIREVEENDHQDLVSVHIYITQLAEKFDLRTTMLYICERHFQKVLNRSLFTGLRSITHFGRPPFEPFFNSLQEVHPQVRKIGVFSCGPPGMTKNVEKACQLINRQDRTHFSHHYENF
modifications: N-linked glycosylation
notes: human DUOX1, matured protein residues 20-1551; Secretion guided by a rat FSHbeta signal peptide before the GFP tag; GFP-tagged protein is 219 kDa; also called GFP-tagged hDUOX1; WT hDOUX1; source: HEK293F, BacMam baculovirus infection; digitonin-solubilised membrane for FSEC; purified with hDUOXA1 (Streptactin beads, peptidisc with NSPr, Superose 6 increase) for cryo-EM; not shown: GFP, …

The target in series [1] is B2. Kind of series: cryo-EM structure; hDUOX1-hDUOXA1 complex in peptidisc (NSPr); 2.5 mM EGTA (low calcium) or 0.5 mM free calcium (high calcium); 100 uM FAD, 500 uM NADPH, 0.5 mM fluorinated octyl-maltoside. The settings on record: both partners purified.
Series [2] deals with the molecule itself. Kind of series: SEC; fluorescence size-exclusion chromatography (FSEC) of GFP-tagged hDUOX1 co-expressed with hDUOXA1; membrane solubilised in TBS + 1% digitonin, 1 h, 4 °C. For orientation: SEC sorts molecules by how far they enter the pores of the column.

B1: human dual oxidase maturation factor 1 (hDUOXA1), as in the purified peptidisc complex (natural protein)
chain: MATLGHTFPFYAGPKPTFPMDTTLASIIMIFLTALATFIVILPGIRGKTRLFWLLRVVTSLFIGAAILAVNFSSEWSVGQVSTNTSYKAFSSEWISADIGLQVGLGGVNITLTGTPVQQLNETINYNEEFTWRLGENYAEEYAKALEKGLPDPVLYLAEKFTPRSPCGLYRQYRLAGHYTSAMLWVAFLCWLLANVMLSMPVLVYGGYMLLATGIFQLLALLFFSMATSLTSPCPLHLGASVLHTHHGPAFWITLTTGLLCVLLGLAMAVAHRMQPHRLKAFFNQSVDEDPMLEWSPEEGGLLSPRYRSMADSPKSQDIPLSEASSTKAY
modifications: N-linked glycosylation on N109
notes: human DUOXA1; cDNA cloned into a non-tagged BacMam vector or one with C-terminal MBP-mScarlet tag; the non-tagged one is surmised here; source: HEK293F, BacMam baculovirus infection, co-expressed with hDUOX1 from a bicistronic vector; purified with hDUOX1 (Streptactin beads, peptidisc, Superose 6 increase)
The stoichiometry N is the number of molecules, sites or subunits per partner or assembly. As for B1, the “stoichiometry N” value in series [1] was 1 hDUOXA1 per hDUOX1 (2:2).
For B2, in series [2], the binding result is on record as “binds”.
